Measurements taken from PMC10711660, “An extended Tudor domain within Vreteno interconnects Gtsf1L and Ago3 for piRNA biogenesis in Bombyx mori” (The EMBO Journal, 2023).

B2: GST‐BmVreteno‐L (natural protein, Bombyx mori)
chain: MSNHSRPQRRREWDPMRDDFNEHTYDVQYADDNAGEQVQLDHTKLYIINIPRGLSEDGIRAAFSKHGKVLSARLSKNPNKRFAIVQFETASEAKLAMMKMNGSEPLNLKISIAHKTIRKTQHDNKDRNYSTSRNGHCSRDEASSISSKGWNMRNLDDVMNNDEIDEIDDMIHEDHDDNLDLELDMLTLKQLKIKEEQLMCKRRLLLRHAEKRQVAPHSSAGRSVLPDGRIVVRNNANETDSAEVEPSFAGAGSESLKTPGLERNASRQCVKCGAPADWYCSRCAITPYCSQTCQTRDWTERHKSVCHYLAPLKTAGGFEAEATSSKSVSNSTPMRSSHSPPTKQQRGEADETDNKAKNIQEPRQNYHRPSNSGPNKNIPGKNQDPRRPATSREAIEEETEERGARNPKPAEATKDKHHPMNPVTFQRRQLKSNPVVDAQPAPREQQQPAATRAPEASPTEQRESTRRTLVPDRCLIDSLSEGDVVLVSVELKASECCTKQGGYVCLSMHEKYESDYQKLCEDYVLDCEADSDEYKIITGDTFSYLSPEDGGWYRARALNTTMAALLDGSKVVYLRMNDKVKKLPAKYSGIPEFCCVLNADVEVGLNLKCSLLSKTPNGFKVTLENVETEANVGEGEITRWIPEVDYPPPVKNVPVQRSVEIPEVPRPEIKNKSRVILVDATDVQRVFVRPADTRSQKAFDNILQDVLLYGTTAEPLKEPPSKGQTVVSKYTDNLHYRALCKRTSVNKNKYLLEYIEYGNIEITQLNRLYPCPEHLSVTSLASLTSHVQLDTTVGELTPRALEYIETIKEEEMILTLSSGGDTAQSGAALVNLTLVKNNDNVNKRIEELCTPEWKKLELKGVDVIETERLMYGTALDYIELPAAPFDLQVLDEVGLDSGNISGCPTNSDYVRYVMTKLPARMREYCESEFGRQPYLPAAEELCIAQLPPSSEWHRAVVLEQILGPGGGTARVLFVDHGNVAEVPVSSLRKMLAEFVTDLPAVACQIVIEDFPKQATAEMLAKARRFMSGPDKARAAQLPVRGCDKQDVGIYAIRVPELLEAMTE
notes: BmVreteno Long isoform, Bombyx mori; pGEX-6p vector, 3C site between GST and BmVreteno; the purified protein was associated with nucleic acids; also called GST‐3C‐BmVreteno; full‐length BmVreteno‐L; source: E. coli BL21 DE3 codon+, purified (GSTrap, gel filtration); not shown: GST, N-terminal, kept

Tests used:
GST‐BmVreteno‐L = target: B2; test: pull-down; GSH pull-down: 5 μM GST-BmVreteno (or fragment, variant) on Glutathione Sepharose 4B with 10 μM His-BmGtsf1L, 2 h 4°C, PBS with 0.1% Triton-X100; SDS-PAGE, Coomassie (Fig 5G also anti-His Western blot); details: both partners purified
[1] = target: the molecule itself; test: SEC; gel filtration of purified GST-BmVreteno-L and -S (Superdex 75 and 200 16/60 pg, 25 mM Na-Hepes, 300 mM NaCl, 10% glycerol, pH 7.4); protein associated with nucleic acids

B1: His‐BmGtsf1L (natural protein, Bombyx mori)
chain: MDDPFVSCPYNPIHRVPRSRLQRHIVKCEWINPTMIACPYNATHRYTQEDMKFHVLNCPSKTSIFPIEKPPKTVASITTPKIILQKEYLPETDPNHEIWDD
notes: BmGtsf1L, Bombyx mori; pET28a, thrombin site after the His6 tag; also called His6‐thrombin‐BmGtsf1L; recombinant BmGtsf1L; source: E. coli BL21 DE3 codon+, purified (HisTrap, gel filtration); not shown: His6, N-terminal, kept
Q: Does B1 bind (GST‐BmVreteno‐L)?
A: binds

Q: Does B2 bind [1]?
A: binds
